Measured values taken from PMC5007788, “Heat Shock Factor 1 Is a Substrate for p38 Mitogen-Activated Protein Kinases” (Molecular and Cellular Biology, 2016).
“And” between values parts separate entries of the source, which are not always exact repeats. Equal values may be shown once.

T1: Heat shock factor 1 (HSF1), endogenous in MDA-MB-231 cells (human (endogenous in MDA-MB-231)), Q00613
T1 chain: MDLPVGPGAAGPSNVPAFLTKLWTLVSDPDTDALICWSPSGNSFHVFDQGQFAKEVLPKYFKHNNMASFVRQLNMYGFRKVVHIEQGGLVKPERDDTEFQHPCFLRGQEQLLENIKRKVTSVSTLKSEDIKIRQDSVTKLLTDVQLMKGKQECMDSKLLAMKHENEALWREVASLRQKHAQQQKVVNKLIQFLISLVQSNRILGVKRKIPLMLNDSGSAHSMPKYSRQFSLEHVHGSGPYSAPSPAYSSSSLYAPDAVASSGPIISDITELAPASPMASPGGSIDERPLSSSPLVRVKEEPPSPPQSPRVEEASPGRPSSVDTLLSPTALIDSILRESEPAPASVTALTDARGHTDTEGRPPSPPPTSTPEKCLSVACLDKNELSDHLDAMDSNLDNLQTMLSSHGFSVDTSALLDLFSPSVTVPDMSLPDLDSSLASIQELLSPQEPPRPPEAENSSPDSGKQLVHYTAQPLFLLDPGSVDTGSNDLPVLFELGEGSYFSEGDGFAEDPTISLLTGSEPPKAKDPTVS


Key:
[1] = biological target: T1, Heat shock factor 1 (HSF1), endogenous …; assay: cross-linking; MDA-MB-231 cells treated with 20 uM PEITC for 3 h, fixed with 0.4% (wt/vol) paraformaldehyde in PBS, quenched with glycine; nuclear and cytoplasmic fractions; SDS-PAGE (10% gel), blot with anti-HSF1; details: remark: other sources report otherwise
[2] = biological target: the molecule itself; assay: gel electrophoresis (NuPAGE NoVex Bis-Tris 10% gel); purified recombinant hexahistidine-tagged HSF1 (WT and S326A) run on NuPAGE; dimeric and trimeric species formed spontaneously beside the major band

Binder | stoichiometry N [1] | stoichiometry N [2]
Heat shock factor 1 (HSF1), endogenous in MDA-MB-231 cells, Q00613 1-529 (natural protein) MDLPVGPGAAGPSNVPAFLTKLWTLVSDPDTDALICWSPSGNSFHVFDQGQFAKEVLPKYFKHNNMASFVRQLNMYGFRKVVHIEQGGLVKPERDDTEFQHPCFLRGQEQLLENIKRKVTSVSTLKSEDIKIRQDSVTKLLTDVQLMKGKQECMDSKLLAMKHENEALWREVASLRQKHAQQQKVVNKLIQFLISLVQSNRILGVKRKIPLMLNDSGSAHSMPKYSRQFSLEHVHGSGPYSAPSPAYSSSSLYAPDAVASSGPIISDITELAPASPMASPGGSIDERPLSSSPLVRVKEEPPSPPQSPRVEEASPGRPSSVDTLLSPTALIDSILRESEPAPASVTALTDARGHTDTEGRPPSPPPTSTPEKCLSVACLDKNELSDHLDAMDSNLDNLQTMLSSHGFSVDTSALLDLFSPSVTVPDMSLPDLDSSLASIQELLSPQEPPRPPEAENSSPDSGKQLVHYTAQPLFLLDPGSVDTGSNDLPVLFELGEGSYFSEGDGFAEDPTISLLTGSEPPKAKDPTVS | 2 and 3 | –
Recombinant hexahistidine-tagged HSF1 wild-type (natural protein, human, UniProt Q00613 1-529, looked up, subcloned into pet15b (NdeI, XhoI); The vector pet15b is named; also called His-HSF1; HSF1 WT; source: E. coli BL21(DE3)pLysS, purified (nickel agarose resin, dialysis)) MDLPVGPGAAGPSNVPAFLTKLWTLVSDPDTDALICWSPSGNSFHVFDQGQFAKEVLPKYFKHNNMASFVRQLNMYGFRKVVHIEQGGLVKPERDDTEFQHPCFLRGQEQLLENIKRKVTSVSTLKSEDIKIRQDSVTKLLTDVQLMKGKQECMDSKLLAMKHENEALWREVASLRQKHAQQQKVVNKLIQFLISLVQSNRILGVKRKIPLMLNDSGSAHSMPKYSRQFSLEHVHGSGPYSAPSPAYSSSSLYAPDAVASSGPIISDITELAPASPMASPGGSIDERPLSSSPLVRVKEEPPSPPQSPRVEEASPGRPSSVDTLLSPTALIDSILRESEPAPASVTALTDARGHTDTEGRPPSPPPTSTPEKCLSVACLDKNELSDHLDAMDSNLDNLQTMLSSHGFSVDTSALLDLFSPSVTVPDMSLPDLDSSLASIQELLSPQELPRPPEAENSSPDSGKQLVHYTAQPLFLLDPGSVDTGSNDLPVLFELGEGSYFSEGDGFAEDPTISLLTGSEPPKAKDPTVS | – | 2 and 3
Recombinant hexahistidine-tagged mutant S326A HSF1 (natural protein, human, UniProt Q00613 1-529, looked up, Heat shock factor 1, human, full-length cDNA from Addgene plasmid 32537 (P to L at position 448) in pet15b, with S326A made by site-directed mutagenesis; Made from the pet15b plasmid of m3; also called S326A mutant HSF1; HSF1 S326A; source: E. coli BL21(DE3)pLysS, purified (nickel agarose resin, dialysis)) MDLPVGPGAAGPSNVPAFLTKLWTLVSDPDTDALICWSPSGNSFHVFDQGQFAKEVLPKYFKHNNMASFVRQLNMYGFRKVVHIEQGGLVKPERDDTEFQHPCFLRGQEQLLENIKRKVTSVSTLKSEDIKIRQDSVTKLLTDVQLMKGKQECMDSKLLAMKHENEALWREVASLRQKHAQQQKVVNKLIQFLISLVQSNRILGVKRKIPLMLNDSGSAHSMPKYSRQFSLEHVHGSGPYSAPSPAYSSSSLYAPDAVASSGPIISDITELAPASPMASPGGSIDERPLSSSPLVRVKEEPPSPPQSPRVEEASPGRPSSVDTLLAPTALIDSILRESEPAPASVTALTDARGHTDTEGRPPSPPPTSTPEKCLSVACLDKNELSDHLDAMDSNLDNLQTMLSSHGFSVDTSALLDLFSPSVTVPDMSLPDLDSSLASIQELLSPQELPRPPEAENSSPDSGKQLVHYTAQPLFLLDPGSVDTGSNDLPVLFELGEGSYFSEGDGFAEDPTISLLTGSEPPKAKDPTVS | – | 2 and 3
